# Reference: paper PMC2885016
# Target: human P-TEFb (Cdk9 (1-345)•Cyclin T1 (1-266)) (human) (UniProt P50750)
# Test: SDS-PAGE of dissolved crystals
# UniProt P50750, sequence (P50750 1-345, chain 1 of 2): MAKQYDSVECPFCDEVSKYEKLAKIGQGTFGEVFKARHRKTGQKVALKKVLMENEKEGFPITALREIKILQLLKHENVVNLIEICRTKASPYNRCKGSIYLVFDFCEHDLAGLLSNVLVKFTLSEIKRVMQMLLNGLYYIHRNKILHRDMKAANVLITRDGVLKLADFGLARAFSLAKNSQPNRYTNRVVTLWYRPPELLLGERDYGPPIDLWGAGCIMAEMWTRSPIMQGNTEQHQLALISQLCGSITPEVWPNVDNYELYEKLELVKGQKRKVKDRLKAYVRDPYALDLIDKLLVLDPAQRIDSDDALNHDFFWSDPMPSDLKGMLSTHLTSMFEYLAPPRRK
# UniProt P50750, sequence (O60563 1-266, chain 2 of 2, further chain): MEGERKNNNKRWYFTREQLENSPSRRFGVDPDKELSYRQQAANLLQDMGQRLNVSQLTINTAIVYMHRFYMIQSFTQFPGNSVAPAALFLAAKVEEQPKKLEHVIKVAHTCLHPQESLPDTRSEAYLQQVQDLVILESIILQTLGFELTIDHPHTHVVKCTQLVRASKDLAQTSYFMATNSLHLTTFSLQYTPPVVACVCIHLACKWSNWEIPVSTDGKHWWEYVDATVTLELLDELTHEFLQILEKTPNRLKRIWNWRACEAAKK
substance,measurement,value
HIV-1 Tat (1-86) (from UniProt P04608 1-86) (natural protein),stoichiometry N,1
